Patent US10350158B2, “2′ fluoro-modified RNAs as immunostimulators” (DUKE UNIVERSITY, priority 2013, dated 2019)
Strand notation (5' to 3'): a small letter for the sugar, then the base; units joined by * are phosphorothioate-linked, units joined directly phosphodiester-linked; [ ] holds rarer units or linkages, { } end groups; capitals alone tell only the bases. {ppp} = triphosphate; r = 2'-OH (RNA); f = 2'-fluoro

Key:
[1] = target: T1, Human TLR7 (Homo sapiens, UniProt Q9NYK1); assay: IL-8 production by human TLR7-expressing HEK293 cells; type: cell-based
T1 construct: expressed in transfected cells; host or cells: HEK293 (HEK-TLR7), gift of Dr. Todd Brennan, Duke University
T1 sequence (Q9NYK1 27-1049): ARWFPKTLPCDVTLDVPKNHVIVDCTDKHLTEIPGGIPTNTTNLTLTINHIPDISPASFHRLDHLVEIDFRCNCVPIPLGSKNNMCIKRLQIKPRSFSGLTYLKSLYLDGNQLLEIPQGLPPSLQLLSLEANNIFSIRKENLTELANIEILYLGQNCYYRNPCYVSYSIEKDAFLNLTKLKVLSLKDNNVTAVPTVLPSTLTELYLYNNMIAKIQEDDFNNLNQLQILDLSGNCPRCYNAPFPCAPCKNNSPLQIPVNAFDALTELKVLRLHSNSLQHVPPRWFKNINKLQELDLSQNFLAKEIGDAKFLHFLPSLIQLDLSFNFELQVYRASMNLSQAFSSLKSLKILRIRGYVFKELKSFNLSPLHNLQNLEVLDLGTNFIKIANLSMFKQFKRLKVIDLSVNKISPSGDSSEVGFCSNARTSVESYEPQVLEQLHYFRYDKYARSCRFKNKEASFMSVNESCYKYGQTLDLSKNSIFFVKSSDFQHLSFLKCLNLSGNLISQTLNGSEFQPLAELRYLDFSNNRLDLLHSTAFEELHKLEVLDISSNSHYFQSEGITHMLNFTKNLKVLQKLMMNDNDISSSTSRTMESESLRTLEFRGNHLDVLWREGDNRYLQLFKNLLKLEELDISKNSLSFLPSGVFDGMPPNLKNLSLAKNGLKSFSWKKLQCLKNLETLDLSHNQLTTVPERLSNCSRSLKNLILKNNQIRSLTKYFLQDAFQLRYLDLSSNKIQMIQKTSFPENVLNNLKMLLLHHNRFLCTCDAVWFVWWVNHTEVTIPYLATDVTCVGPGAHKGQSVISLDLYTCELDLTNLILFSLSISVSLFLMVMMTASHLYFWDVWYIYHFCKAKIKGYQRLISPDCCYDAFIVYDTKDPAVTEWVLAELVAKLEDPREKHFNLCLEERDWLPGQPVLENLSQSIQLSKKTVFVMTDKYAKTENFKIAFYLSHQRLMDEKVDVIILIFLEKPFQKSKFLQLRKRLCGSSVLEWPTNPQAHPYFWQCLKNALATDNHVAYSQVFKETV
Method: The human TLR3 reporter cell, HEK-hTLR3-NFκB/SEAP was purchased from Invivogen. These cells were stably co-transfected with the human TLR3 gene and an inducible SEAP (secreted embryonic alkaline phosphatase) reporter gene into HEK293 cells. The SEAP gene is placed under the control of NF-κB and AP-1. […] SEAP gene expression was measured using the SEAP detection media QUANTI-BLUE (Invivogen), according to the manufacturer's instructions. FIG. 3B is a graph showing that TLR7 is not stimulated by the ssRNAs. Human TLR7-expressing HEK293 cells were kindly provided by Dr. Todd Brennan (Duke University, Durham, N.C.). Treatment with R848 but not with polyI:C, polyI:C-DF and 5′ppp 2′F 10F-DF complexes stimulated HEK-TLR7 cells to produce the inflammatory cytokine IL-8. The data represent the mean of two experiments. Error bars represent the S.D.

[2] = tested on: IFNβ; assay: IFNβ ELISA of transfected melanoma cell supernatants; type: cell-based, human
Method: For the intracellular delivery of immune stimulatory RNAs, RNAs were transfected with the DharmaFECT® Duo liposomal transfection reagent (Thermo Scientific, Waltham, Mass.) at a transfection reagent (μl):RNA (μg) ratio of 3.75:1, according to the manufacturer's instructions. Unless otherwise stated, for the induction of innate immune responses and apoptosis, immune stimulatory RNAs (500 ng/ml) were transfected into 50 to 70% confluent cells. Cells were incubated with an RNA-transfection agent complex for 5 h, followed by replenishment with fresh culture medium. To electroporate cells, 1×10^5 cells suspended in 200 μl Opti-MEM I (Invitrogen) were mixed with 1 μg of immune stimulatory RNAs or 5 μg of 2'Fluoro pyrimidine ribonucleoside triphosphate in 2-mm cuvettes and were electroporated at 300 V for 500 μs using an Electro Square Porator ECM 830 (BTX, San Diego, Calif.). For the knockdown of RNA-sensing PRRs, cells were transfected with PRR-specific siRNAs (25 nM) twice at 2-day intervals using DharmaFECT®-1 (Thermo Scientific). At 5 h after the second siRNA transfection, cells were harvested, replated into a 96-well plate and incubated overnight. Cells were then treated with immune stimulatory RNA transfections. Staurosporine (2 μM) (Sigma, St Louis, Mo.) and recombinant human IFNβ (20 ng/ml) (PeproTech, Rocky Hill, N.J.) were used as positive controls of anti-melanoma cytotoxicity. […] (100 ng/ml) (eBioscience, San Diego, Calif.) was added directly to the growth media of cells to neutralize IFNβ. Cells were transfected with RNAs as described above. At 24 hours after RNA transfection, culture supernatants were collected and stored at -80° C. for later analyses. The production of human IL-8 was analyzed with a human IL-8 ELISA kit (eBioscience). IFN-β production was determined with a human IFN-β ELISA kit (PBL Biomedical Laboratories, Piscataway, N.J.) by following the manufacturer's instructions.

B1: 10F: 5′ppp 2′F pyrimidine ssRNA aptamer, 71 nt, human melanocytic cell-targeting, SEQ ID NO: 4 (nucleic acid)
chain: {ppp}-rGrGrGrArGrGrAfCrGrAfUrGfCrGrGfUrAfCfCfUrGrAfCrArGfCrAfUfCfUfUrGrAfUrArAfUrGrGfUfCfCfUrAfCrGrGrArGfCfCrGfUfUfCfCrArGrAfCrGrAfCfUfCrGfCfCfCrGrA
In the case of B1, the “stimulation of HEK-TLR7 cells to produce IL-8” value [1] is reported as “not”, the “IFNβ production, fold compared to unmodified 5′ppp RNAs” value ([2]; 0.5 μg/ml, 24 h, ELISA) is reported as “over 2 fold” and the “IFNβ production after dephosphorylation of the aptamer” value ([2]; aptamer treated with bacterial alkaline phosphatase (BAP), 0.125 μg/ml) is reported as “partially prevented”. For the same molecule, the “IFNβ production / induction, in words” value ([2]; liposomal transfection, ELISA) was “strong induction”.
